The values below come from article PMC3861647.

Usually Kd stands for the equilibrium constant for the complex coming apart. High values mean weaker binding, low ones tighter binding. The term stoichiometry N denotes a count of units in the complex or per binding partner.

This experiment deals with MBP-RU678 (human). The experiment is described as follows: ITC; MicroCal ITC200, 25 °C, HBS (10 mM HEPES, 150 mM NaCl, pH 7.4); cell: 50 μM MBP-RU678; syringe: 0.5 mM Srr1-BR or Srr2-BR; single binding mode.

Substance “Srr1-BR (untagged recombinant binding region of Srr1) (domain or fragment)” gave a Kd of 69 µM and a stoichiometry N of 1.

The substance “Srr2-BR (untagged recombinant binding region of Srr2) (domain or fragment)” showed a Kd of 12 µM and a stoichiometry N of 1.
